Experimental findings from patent publication US20190375846A1 are described below.

The target of this assay is human GITR at the cell surface (human) (UniProt Q9Y5U5). Nature of the assay: cell-based or functional assay.
Sequence of human GITR at the cell surface (human) (Q9Y5U5 26-241): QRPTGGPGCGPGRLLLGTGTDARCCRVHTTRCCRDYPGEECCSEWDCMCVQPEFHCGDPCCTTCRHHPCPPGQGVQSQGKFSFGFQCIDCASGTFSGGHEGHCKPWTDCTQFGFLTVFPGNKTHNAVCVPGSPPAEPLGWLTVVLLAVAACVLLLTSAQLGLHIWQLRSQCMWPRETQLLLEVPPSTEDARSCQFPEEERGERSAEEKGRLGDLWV

Substance “HA-tagged human GITRL protein cross-linked with anti-HA tag antibody (from UniProt Q9UNG2 52-177) (ligand)” registered a concentration of maximum signal, GITR agonism reporter assay of 1000 to 2000 ng/mL.
